This series concerns the molecule itself. The series can be described thus: visible aggregation in tubes; 2 uM rEsp_N in phosphate-citrate buffer, pH 3.6 to 8 tested; aggregates at pH 4.0-4.2 seen as a ring on the glass wall after 24 h at 37 °C, 200 rpm.

B1: recombinant Esp_N domain (N-terminal domain of the enterococcal surface protein Esp, amino acids 50-743) (domain or fragment)
chain: QMGEGRLANYSASGNTFQENPGYTKNYNFSDLQFNPKAITGDVLQGNTIDFEVYGKHNIAASTANWEIRLQLDERLAQYVEKIQVDPKKGVGNSRRTFVRINDSLGRPTNIWKVNYIRANDGLFAGAETTDTQTAPNGVITFEKNLDEIFKEIGADNLKSDRLMYRIYLVSHQDDDKIVPGIESTGYFLTDQDDFYNKLDVSENNSDQFKHGSVNTKYEEANIQTKDGSGSTGANGAIILDHKLTKEKNFSYSTSAKGTPWYANYKIDERLVPYVSGIQMHMVQADKVAYNVAFESGKKVADLAIERREGHENYGMGSITDNDLTKLIDFANASPRPIVVRYVLQLTKPLDEILEEMKAADKIEENAPFGEDFIFDSWLSDTNKKLIQNTYGTGYYYLQDIDGDGNPDDKEESGDTNPYIGKPELEEVYDVDTTVKGKVFIHELAGTGHKAQLVDKEGTVLAEKTIAPNEKDGAPISDTVEFEFTGVDSSKLIAKDELKIQIVSPGFDKPEEGSTVIKESPKAVDKQTVVVGFKPDAKESIRNNKNLPEDAEYSWKTEPDTSNVTDSTKGIVTVKIGNRTFDVDVEFAVKASQAMENDATYVPITTTPETTIQSGKPTFDKPDVPLANDAFSVLDVYNKDFGNASVDANTGIVTFTPAKGVGESEPITGTIPIKIVYQDGSVGTTDLAVTVSKN
notes: Enterococcal surface protein Esp of Enterococcus faecalis, amplified from strain 11279; N-terminal domain, amino acids 50-743 of the 1873-residue protein; No cleavage of the tag is mentioned; also called N-terminus of Esp; not shown: His tag (from the vector pET46-Ek/LIC)
For the protein B1, the binding result is recorded as “binds”.

These data come from paper PMC7101364, “The biofilm-associated surface protein Esp of Enterococcus faecalis forms amyloid-like fibers” (NPJ Biofilms and Microbiomes, 2020).
